Experimental data: US12385914B2, “CRY1-clock-BMAL1 complex-disrupting agents and methods of identifying and using same” (The Regents of the University of California, priority 2017, dated 2025)
Entries after “also recorded” stand apart in the source; their conditions may differ.

Biological target: T1, CRY1-CLOCK PAS-B domain complex (Mus musculus, UniProt P97784)
T1 construct: His6 (N, cleaved yes); made in house; host or cells: CRY1 PHR: Sf9 insect cells (baculovirus)
T1 sequence (P97784 with tags, fused parts or gaps): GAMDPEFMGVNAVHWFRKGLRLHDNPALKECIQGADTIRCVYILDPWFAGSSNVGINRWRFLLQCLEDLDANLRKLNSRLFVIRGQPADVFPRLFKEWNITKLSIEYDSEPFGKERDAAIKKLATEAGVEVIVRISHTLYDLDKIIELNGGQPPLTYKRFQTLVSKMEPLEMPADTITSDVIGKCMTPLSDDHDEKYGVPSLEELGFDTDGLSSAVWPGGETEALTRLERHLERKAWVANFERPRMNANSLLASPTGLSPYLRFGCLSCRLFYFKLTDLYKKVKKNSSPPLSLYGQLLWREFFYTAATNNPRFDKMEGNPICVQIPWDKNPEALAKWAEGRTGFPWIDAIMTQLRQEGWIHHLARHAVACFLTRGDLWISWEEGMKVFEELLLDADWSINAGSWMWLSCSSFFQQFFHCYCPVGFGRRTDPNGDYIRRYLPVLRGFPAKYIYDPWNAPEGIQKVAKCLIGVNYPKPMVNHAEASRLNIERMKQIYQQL
Experiment: Fluorescence polarization (FP)-based displacement assay of labeled CLOCK PAS-B from CRY1 PHR
Type: binding
Conditions: 100 μM peptide; 20 nM CLOCK PAS-B probe and 4 μM CRY1 PHR; triplicate wells; FIG. 13
Method: Described in this example is a fluorescence polarization (FP)-based displacement assay developed by the inventors for identifying agents that disrupt the CRY1-CLOCK-BMAL1 ternary complex.
CRY1 PHR and CLOCK PAS-B domain fluorescently labeled at its N-terminus were prepared as described in the preceding examples. Equipment/Reagents included the following: Greiner 384 Well Assay Plate, 120 μl rounded square wells, flat bottom, black polystyrene; Envision 2103 Multilabel Reader (2103-0020); Fluorescence Polarization (FP) assay buffer (50 mM Bis-Tris Propane, 100 mM NaCl, 2 mM TCEP, 0.05% Tween-20, 0.5% DMSO, pH 7.5); and GraphPad Prism (version 6 or higher). All assay components were buffer exchanged into FP buffer.
A stock assay mixture of 8 μM CRY1 and 40 nM labeled CLOCK PAS-B was incubated at 4° C. overnight. Equal volumes (half of final well volume) stock assay mixture was dispensed into wells of the Greiner 384 Well Assay Plate, reserving wells for appropriate controls. […] Fluorescence polarization was measured using an Envision 2013 plate reader.
A labeled CLOCK PAS-B-only control of 20 nM was used to determine the G-factor for FP. The G-factor should be variable “G” such that Fluorescence polarization (FP)=1000*(S−G*P)/(S+G*P). […] G=(S/P)*(1−27/1000)/(1+27/1000), with S being the parallel fluorescence intensity, and P being the perpendicular fluorescence intensity. […]

## peptide encoded by CRY1 Exon 11: 23 residue peptide encoded by human CRY1 Exon 11 (residues 530-552), sequence CSQGSG1LHYAHGDSQQTHLLK; positive control inhibitor (CSQGSGILHYAHGDSQQTHLLK; listed as Homo sapiens)
  displacement of CLOCK PAS-B from the CRY1 PHR: displaced CLOCK PAS-B from the CRY1 PHR; also recorded: able to displace CLOCK PAS-B from the CRY1 PHR
